Experimental data reported in US20200024330A1.

What was measured:
Experiment in all cases: cell-based or functional assay
[1] = target: HIV-1 Env of isolate CAP45 (HIV-1)
[2] = target: HIV-1 Env of isolate DU422 (HIV-1)
[3] = target: HIV-1 92BR020 Env (clade B pseudovirus) (HIV-1)
[4] = target: HIV-1 93UG077 Env (clade A pseudovirus) (HIV-1)
[5] = target: HIV-1 94UG103 Env (clade A pseudovirus) (HIV-1)
[6] = target: HIV-1 APV13 Env (clade B pseudovirus) (HIV-1)
[7] = target: HIV-1 MGRM-A-010 Env (clade A pseudovirus) (HIV-1)
[8] = target: HIV-1 MGRM-C-026 Env (clade C pseudovirus) (HIV-1)
[9] = target: HIV-1 MGRM-C-028 Env (clade C pseudovirus) (HIV-1)
[10] = target: HIV-1 92TH021 Env (pseudovirus) (HIV-1)
[11] = target: HIV-1 92UG005 Env (pseudovirus) (HIV-1)
[12] = target: HIV-1 92UG024 Env (pseudovirus) (HIV-1)
[13] = target: HIV-1 CMU02 Env (pseudovirus) (HIV-1)
[14] = target: HIV-1 Env of isolate 92RW020 (clade A) (HIV-1)
[15] = target: HIV-1 Env of isolate 93IN905 (clade C) (HIV-1)
[16] = target: HIV-1 Env of isolate 94UG103 (clade A) (HIV-1)
[17] = target: HIV-1 Env of isolate CMU02 (clade AE) (HIV-1)
[18] = target: HIV-1 Env of isolate JRCSF (clade B) (HIV-1) (UniProt P20871)
[19] = target: HIV-1 Env of isolate MGRM-C-026 (clade C) (HIV-1)
[20] = target: HIV-1 Env of isolate MGRM-F1-017 (clade F), on pseudovirus (HIV-1)
[21] = target: HIV-1 Env of isolate MGRM-F1-021 (clade F), on pseudovirus (HIV-1)
[22] = target: HIV-1 Env of isolate MGRM-F1-022 (clade F), on pseudovirus (HIV-1)
[23] = target: HIV-1 envelope glycoprotein (Env) of isolate JRFL, on pseudovirus (HIV-1)
[24] = target: HIV-1 envelope glycoprotein (Env) of isolate MGRM-Chronic-B-003, on pseudovirus (HIV-1)
[25] = target: HIV-1 envelope glycoprotein (Env) of isolate MGRM-Chronic-B-011, on pseudovirus (HIV-1)
[26] = target: HIV-1 Env of isolate 92TH021 (pseudovirus) (HIV-1)
[27] = target: HIV-1 Env of isolate 92UG001 (subtype D), on pseudovirus (HIV-1)
[28] = target: HIV-1 Env of isolate 92WR024 (pseudovirus) (HIV-1)
[29] = target: HIV-1 Env of isolate 94 KE 105 (pseudovirus) (HIV-1)
[30] = target: HIV-1 Env of isolate 98CN009 (subtype CRF07_BC), on pseudovirus (HIV-1)
[31] = target: HIV-1 Env of isolate APV_13 (HIV-1)
[32] = target: HIV-1 Env of isolate APV_17 (HIV-1)
[33] = target: HIV-1 Env of isolate MG RM-A-009 (pseudovirus) (HIV-1)
[34] = target: HIV-1 Env of isolate MGRM-AE-005 (pseudovirus) (HIV-1)
[35] = target: HIV-1 Env of isolate MGRM-D-005 (subtype D), on pseudovirus (HIV-1)

1443_C16 (PG16) (TCN-116) (antibody), sequence (VH): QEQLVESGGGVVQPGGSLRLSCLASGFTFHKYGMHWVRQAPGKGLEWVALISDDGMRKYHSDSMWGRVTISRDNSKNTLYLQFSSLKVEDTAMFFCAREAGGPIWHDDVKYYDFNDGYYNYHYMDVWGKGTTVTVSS
1443_C16 (PG16) (TCN-116) (antibody), sequence (VL): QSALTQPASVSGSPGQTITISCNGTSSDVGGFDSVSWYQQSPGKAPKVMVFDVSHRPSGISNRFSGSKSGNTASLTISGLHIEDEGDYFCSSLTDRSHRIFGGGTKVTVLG

1443_C16 (PG16) (TCN-116) (antibody)
IC50, pseudovirus neutralization (TZM-bl) [1]: < 0.01 µg/mL
IC50, pseudovirus neutralization (TZM-bl) [2]: 0.59 µg/mL

4877_D15 (PGT-122) (antibody)
Neutralization by PGT-122, IC50 [3]: 0.0337 µg/mL
Neutralization by PGT-122, IC80 [3]: 0.0929 µg/mL
Neutralization by PGT-122, IC90 [3]: 0.168 µg/mL
Neutralization by PGT-122, IC95 [3]: 0.289 µg/mL
Neutralization by PGT-122, IC50 [4]: 0.191 µg/mL
Neutralization by PGT-122, IC80 [4]: 0.931 µg/mL
Neutralization by PGT-122, IC90 [4]: 2.1 µg/mL
Neutralization by PGT-122, IC95 [4]: 3.88 µg/mL
Neutralization by PGT-122, IC50 [5]: 1.46 µg/mL
Neutralization by PGT-122, IC80 [5]: 6.58 µg/mL
Neutralization by PGT-122, IC90 [5]: > 10 µg/mL
Neutralization by PGT-122, IC95 [5]: > 10 µg/mL
Neutralization by PGT-122, IC50 [6]: 0.992 µg/mL
Neutralization by PGT-122, IC80 [6]: 4.14 µg/mL
Neutralization by PGT-122, IC90 [6]: 8.6 µg/mL
Neutralization by PGT-122, IC95 [6]: > 10 µg/mL
Neutralization by PGT-122, IC50 [7]: 1.68 µg/mL
Neutralization by PGT-122, IC80 [7]: > 10 µg/mL
Neutralization by PGT-122, IC90 [7]: > 10 µg/mL
Neutralization by PGT-122, IC95 [7]: > 10 µg/mL
Neutralization by PGT-122, IC50 [8]: 0.0089 µg/mL
Neutralization by PGT-122, IC80 [8]: 0.037 µg/mL
Neutralization by PGT-122, IC90 [8]: 0.0849 µg/mL
Neutralization by PGT-122, IC95 [8]: 0.181 µg/mL
Neutralization by PGT-122, IC50 [9]: 2.06 µg/mL
Neutralization by PGT-122, IC80 [9]: > 10 µg/mL
Neutralization by PGT-122, IC90 [9]: > 10 µg/mL
Neutralization by PGT-122, IC95 [9]: > 10 µg/mL

5141_B17 (PGT-126) (antibody)
IC50 [10]: 0.115 µg/mL
IC80 [10]: 1.62 µg/mL
IC90 [10]: 6.91 µg/mL
IC95 [10]: > 10 µg/mL
IC50 [11]: 0.0181 µg/mL
IC80 [11]: 0.145 µg/mL
IC90 [11]: 0.553 µg/mL
IC95 [11]: 2.45 µg/mL
IC50 [12]: > 10 µg/mL
IC80 [12]: > 10 µg/mL
IC90 [12]: > 10 µg/mL
IC95 [12]: > 10 µg/mL
IC50 [13]: > 10 µg/mL
IC80 [13]: > 10 µg/mL
IC90 [13]: > 10 µg/mL
IC95 [13]: > 10 µg/mL

5147_N06 (PGT-130) (antibody)
neutralization IC50 [14]: 0.014 µg/mL
neutralization IC80 [14]: 0.508 µg/mL
neutralization IC90 [14]: 3.68 µg/mL
neutralization IC95 [14]: > 10 µg/mL
neutralization IC50 [15]: 0.0182 µg/mL
neutralization IC80 [15]: 0.272 µg/mL
neutralization IC90 [15]: 1.31 µg/mL
neutralization IC95 [15]: 5.48 µg/mL
neutralization IC50 [16]: 0.635 µg/mL
neutralization IC80 [16]: > 10 µg/mL
neutralization IC90 [16]: > 10 µg/mL
neutralization IC95 [16]: > 10 µg/mL
neutralization IC50 [17]: > 10 µg/mL
neutralization IC80 [17]: > 10 µg/mL
neutralization IC90 [17]: > 10 µg/mL
neutralization IC95 [17]: > 10 µg/mL
neutralization IC50 [18]: 0.0089 µg/mL
neutralization IC80 [18]: 0.0317 µg/mL
neutralization IC90 [18]: 0.0669 µg/mL
neutralization IC95 [18]: 0.134 µg/mL
neutralization IC50 [19]: 0.0173 µg/mL
neutralization IC80 [19]: 0.263 µg/mL
neutralization IC90 [19]: 1.32 µg/mL
neutralization IC95 [19]: 6.13 µg/mL

PGV04 (antibody)
IC50 (µg/mL), single-round pseudovirus neutralization [20]: 2.38 µg/mL
IC50 (µg/mL), single-round pseudovirus neutralization [21]: 0.031 µg/mL
IC50 (µg/mL), single-round pseudovirus neutralization [22]: 0.072 µg/mL
IC50, pseudovirus neutralization [23]: 0.032 µg/mL
IC50, pseudovirus neutralization [24]: 0.258 µg/mL
IC50, pseudovirus neutralization [25]: 0.497 µg/mL

VRC01 (antibody)
IC50 (µg/mL), pseudovirus neutralization [26]: 0.616 µg/mL
IC50, pseudovirus neutralization [27]: 1.16 µg/mL
IC50 (µg/mL), pseudovirus neutralization [28]: 0.327 µg/mL
IC50 (µg/mL), pseudovirus neutralization [29]: 0.499 µg/mL
IC50, pseudovirus neutralization [30]: 0.346 µg/mL
IC50 [31]: 0.657 µg/mL
IC50 [32]: 0.477 µg/mL
IC50 (µg/mL), pseudovirus neutralization [33]: 0.118 µg/mL
IC50 (µg/mL), pseudovirus neutralization [34]: 0.029 µg/mL
IC50, pseudovirus neutralization [35]: > 50 µg/mL
